Target: T1, 人Tim-3胞外区 (human, UniProt Q8TDQ0 22-202)
T1 construct: extracellular domain; also called T细胞免疫球蛋白黏蛋白分子3
T1 sequence (looked up): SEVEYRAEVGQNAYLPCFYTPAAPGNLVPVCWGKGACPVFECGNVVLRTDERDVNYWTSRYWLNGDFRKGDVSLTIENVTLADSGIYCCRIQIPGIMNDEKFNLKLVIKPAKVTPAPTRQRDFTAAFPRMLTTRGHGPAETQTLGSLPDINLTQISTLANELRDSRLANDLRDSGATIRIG
Assay: hybridoma screening, indirect ELISA

- binding result: binds
B1: 抗人Tim-3单克隆抗体CDT1 (antibody, V domains shown)
VH: VKLQESGGGLVQPGGSLRLSCATSGFTFTDYYMSWVRQPPGKALEWLGFIRNKANGYTTEYSASVKGRFTISRDYSQSILYLQMNTLTAEDSATYFCARDLDYWGQGTTVTVSS
VL: NIMMTQSPSSLAVSAGEKVTMSCKSSQSVLYSSNQKNFLAWYQQKPGQSPELLIYWASTRVSGVPDRFTGSGSGTDFTLTISNVQAEDLAVYYCHQYLSLRTFGGGTKLEI
notes: also called CDT1抗体
